Data reported in patent US20240318159.

System: mND1 TALE_L-BE_41-N(G108) + TALE_R-BE_41-C(G43) split base editor (synthetic)
Experiment: cell_activity
Conditions: m.2820G>A allele in mouse cells

CATTAGTAGAACGCA (double strand) [mND1 G2820 target]
activity: 56.4%
